{"source": "patent US20200172619A1", "about": "(UNIVERSIT T STUTTGART, published 2020)", "key": {"[1]": {"target": "MCSP (melanoma-associated chondroitin sulfate proteoglycan) on WM35 cells (human, UniProt Q6UVK1 30-2322)", "sequence (Q6UVK1 30-2322)": "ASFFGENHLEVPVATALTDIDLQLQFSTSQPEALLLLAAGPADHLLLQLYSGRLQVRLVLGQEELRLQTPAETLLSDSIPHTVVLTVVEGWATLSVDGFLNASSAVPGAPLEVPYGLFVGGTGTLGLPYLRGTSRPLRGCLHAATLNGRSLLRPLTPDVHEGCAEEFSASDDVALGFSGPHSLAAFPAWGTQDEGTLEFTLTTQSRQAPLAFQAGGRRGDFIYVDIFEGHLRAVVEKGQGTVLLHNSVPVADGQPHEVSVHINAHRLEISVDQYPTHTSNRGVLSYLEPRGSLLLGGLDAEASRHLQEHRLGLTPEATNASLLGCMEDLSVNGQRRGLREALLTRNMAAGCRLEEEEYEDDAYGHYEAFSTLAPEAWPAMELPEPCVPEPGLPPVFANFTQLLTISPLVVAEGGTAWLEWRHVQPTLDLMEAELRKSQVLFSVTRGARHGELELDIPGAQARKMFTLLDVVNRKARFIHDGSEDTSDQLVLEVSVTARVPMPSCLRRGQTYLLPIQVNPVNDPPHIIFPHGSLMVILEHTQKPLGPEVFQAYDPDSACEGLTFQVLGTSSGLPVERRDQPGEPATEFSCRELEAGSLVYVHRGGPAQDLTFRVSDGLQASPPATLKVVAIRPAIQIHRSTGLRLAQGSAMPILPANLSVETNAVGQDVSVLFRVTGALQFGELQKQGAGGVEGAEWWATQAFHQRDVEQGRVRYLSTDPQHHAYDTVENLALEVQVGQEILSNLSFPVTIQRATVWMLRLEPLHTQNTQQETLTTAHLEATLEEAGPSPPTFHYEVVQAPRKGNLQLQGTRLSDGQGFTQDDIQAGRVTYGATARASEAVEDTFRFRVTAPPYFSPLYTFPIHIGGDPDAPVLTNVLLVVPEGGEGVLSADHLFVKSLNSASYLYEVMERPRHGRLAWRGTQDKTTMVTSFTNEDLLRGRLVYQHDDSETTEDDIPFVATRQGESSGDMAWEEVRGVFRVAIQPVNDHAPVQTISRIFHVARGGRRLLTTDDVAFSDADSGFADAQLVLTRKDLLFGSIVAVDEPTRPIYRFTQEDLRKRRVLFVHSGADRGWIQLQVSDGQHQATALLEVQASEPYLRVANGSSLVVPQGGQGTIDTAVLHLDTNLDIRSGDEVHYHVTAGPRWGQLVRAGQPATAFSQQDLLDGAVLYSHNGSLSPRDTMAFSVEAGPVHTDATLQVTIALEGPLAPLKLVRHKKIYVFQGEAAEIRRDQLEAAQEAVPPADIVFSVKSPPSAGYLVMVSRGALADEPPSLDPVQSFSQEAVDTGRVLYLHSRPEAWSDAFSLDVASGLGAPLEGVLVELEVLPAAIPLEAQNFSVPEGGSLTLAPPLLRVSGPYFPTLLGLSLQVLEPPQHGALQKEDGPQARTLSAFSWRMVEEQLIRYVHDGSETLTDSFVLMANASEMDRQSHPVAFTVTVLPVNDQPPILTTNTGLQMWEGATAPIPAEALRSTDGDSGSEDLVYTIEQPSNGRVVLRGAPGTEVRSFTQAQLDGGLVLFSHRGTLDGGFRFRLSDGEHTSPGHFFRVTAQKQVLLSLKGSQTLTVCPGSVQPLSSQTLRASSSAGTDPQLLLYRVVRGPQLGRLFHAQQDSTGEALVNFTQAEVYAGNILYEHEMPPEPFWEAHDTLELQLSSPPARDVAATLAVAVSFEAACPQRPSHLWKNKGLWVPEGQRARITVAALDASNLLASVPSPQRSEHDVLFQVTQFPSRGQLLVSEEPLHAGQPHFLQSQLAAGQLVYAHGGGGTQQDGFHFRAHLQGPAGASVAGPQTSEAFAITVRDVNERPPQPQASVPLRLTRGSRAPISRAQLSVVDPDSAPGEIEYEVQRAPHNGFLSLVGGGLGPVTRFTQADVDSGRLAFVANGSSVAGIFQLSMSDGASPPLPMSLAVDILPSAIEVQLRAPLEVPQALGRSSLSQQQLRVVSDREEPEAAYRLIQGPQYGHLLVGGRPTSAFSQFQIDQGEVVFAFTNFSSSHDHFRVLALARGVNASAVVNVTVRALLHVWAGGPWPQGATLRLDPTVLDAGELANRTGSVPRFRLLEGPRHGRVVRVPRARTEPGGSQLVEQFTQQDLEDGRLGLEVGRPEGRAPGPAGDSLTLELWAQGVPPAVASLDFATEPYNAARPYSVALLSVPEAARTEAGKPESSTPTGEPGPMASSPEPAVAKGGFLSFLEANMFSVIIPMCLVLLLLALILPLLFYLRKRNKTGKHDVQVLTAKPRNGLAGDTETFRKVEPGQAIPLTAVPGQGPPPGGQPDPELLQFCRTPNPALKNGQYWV", "test": "cell-based or functional assay"}, "Her3-Fc fusion protein": {"target": "T1, Her3-Fc fusion protein (human, UniProt P21860 20-643)", "T1 construct": "also called immobilized Her3-Fc fusion protein; not shown: Fc part not described", "test": "ELISA, immobilized Her3-Fc fusion protein"}, "[2]": {"target": "T2, TNFR1 on the surface of cells (HT1080, HeLa, Kym-1) (human, UniProt P19438 30-455)", "T2 sequence (looked up)": "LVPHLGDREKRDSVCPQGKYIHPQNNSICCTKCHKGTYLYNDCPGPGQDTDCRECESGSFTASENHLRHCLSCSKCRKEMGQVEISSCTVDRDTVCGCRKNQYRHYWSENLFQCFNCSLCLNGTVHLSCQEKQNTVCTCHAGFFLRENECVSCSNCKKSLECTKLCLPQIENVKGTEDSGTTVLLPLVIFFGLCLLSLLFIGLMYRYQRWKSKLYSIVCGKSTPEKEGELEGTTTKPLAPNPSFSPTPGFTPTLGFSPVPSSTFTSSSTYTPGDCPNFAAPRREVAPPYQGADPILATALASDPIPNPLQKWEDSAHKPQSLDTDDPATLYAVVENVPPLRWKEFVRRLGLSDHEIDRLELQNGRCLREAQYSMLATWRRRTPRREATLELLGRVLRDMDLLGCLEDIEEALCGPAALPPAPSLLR", "test": "cell-based or functional assay"}, "[3]": {"target": "T2, TNFR1 on the surface of cells (HT1080, …)", "test": "cell-based or functional assay", "remark": "listed apart in the source"}, "[4]": {"target": "T3, human TNFR1-Fc fusion protein (human, UniProt P19438 30-211)", "T3 construct": "Provided by Baliopharm AG; Coated at 1 ug/ml in the ELISA; also called huTNFR1-Fc; immobilized human TNFR1; not shown: Fc part not described", "T3 sequence (looked up)": "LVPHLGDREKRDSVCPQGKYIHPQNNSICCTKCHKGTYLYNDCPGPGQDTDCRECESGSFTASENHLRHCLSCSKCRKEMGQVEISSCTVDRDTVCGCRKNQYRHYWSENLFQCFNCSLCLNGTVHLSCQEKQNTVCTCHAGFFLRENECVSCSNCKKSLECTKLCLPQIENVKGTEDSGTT", "test": "ELISA, immobilized human TNFR1-Fc", "description": "Microtiter plates were coated with 100 μl of TNFFR1-Fc fusion protein (1 μg/ml in PBS) and incubated at 4° C. overnight."}, "[5]": {"target": "T3, human TNFR1-Fc fusion protein", "test": "ELISA, human TNFR1-Fc", "description": "(§1) Microtiter plates were coated with 100 μl of TNFFR1-Fc fusion protein (1 μg/ml in PBS) and incubated at 4° C. overnight. The residual binding sites were blocked with 2% MPBS (skim milk in PBS, 200 μl per well) at room temperature for 2 hours and subsequently washed twice with PBS. 100 μl of the samples diluted in 2% MPBS were incubated at room temperature for 1 hour prior to the last incubation step with 100 μl of the HRP conjugated detection antibodies in 2% MPBS. Bound protein was detected with 100 μl TMB substrate solution, the HRP-reaction was stopped by the addition of 50 μl 1 M H2SO4 and the absorption at the wavelength of 450 nm was measured using the Infinite microtiter plate reader (TECAN, Maennedorf, Switzerland). Between each incubation step and in advance of the detection, the plates were washed three times with PBST and twice with PBS."}, "[6]": {"target": "T3, human TNFR1-Fc fusion protein", "test": "ELISA, immobilized human TNFR1-Fc", "remark": "listed apart in the source"}, "[7]": {"target": "T2, TNFR1 on the surface of cells (HT1080, …)", "test": "cell-based or functional assay", "remark": "listed apart in the source"}, "[8]": {"target": "T2, TNFR1 on the surface of cells (HT1080, …)", "test": "cell-based or functional assay", "remark": "listed apart in the source"}, "[9]": {"target": "T3, human TNFR1-Fc fusion protein", "test": "ELISA, immobilized human TNFR1-Fc", "description": "as §1", "remark": "listed apart in the source"}}, "note": "Read-outs that look alike come from different tables or passages of the source.", "data": [{"binder": "MCSPN-CD3N-hFc1k (bispecific antibody) chain 1: QVQLVQSGAEVKKPGASVKVSCKASGYTFTRSWMNWVRQAPGQGLEWMGRIYPGDGDTNYNGKFKGRVTMTRDTSTSTVYMELSSLRSEDTAVYYCARGNTVVVPYTMDYWGQGTTVTVSSGGGGSGGGGSGGGGSDIQMTQSPSSLSASVGDRVTITCRASESVDSYGNSFMHWYQQKPGKAPKLLIYLASNLESGVPSRFSGSGSGTDFTLTISSLQPEDFATYYCQQNNEDPLTFGGGTKVEIKRAAADKTHTCPPCPAPPVAGPSVFLFPPKPKDTLMISRTPEVTCVVVDVSHEDPEVKFNWYVDGVEVHNAKTKPREEQYNSTYRVVSVLTVLHQDWLNGKEYKCKVSNKGLPSSIEKTISKAKGQPREPSVFPLAPSSKSTSGGTAALGCLVKDYFPSDIAVEWESGALTSGVHTFPAVLQSSGLYSLSSVVTVPSSSLGTQTYSCSVMHEALHNHYTQKSVEPKSC chain 2: DIQMTQSPSSLSASVGDRVTITCRASQDIRNYLNWYQQKPGKAPKLLIYYTSRLHSGVPSRFSGSGSGTDFTFTISSLQPEDIATYYCQQGNTLPWTFGQGTKLEIKRGGGGSGGGGSGGGGSQVQLVQSGAEVKKPGSSVKVSCKASGGTFSGYTMNWVRQAPGQGLEWMGLINPYKGVSTYNGKFKDRVTITADKSTSTAYMELSSLRSEDTAVYYCARSGYYGDSDWYFDVWGQGTLVTVSSSGGGSGGGGSDKTHTCPPCPAPPVAGPSVFLFPPKPKDTLMISRTPEVTCVVVDVSHEDPEVKFNWYVDGVEVHNAKTKPREEQYNSTYRVVSVLTVLHQDWLNGKEYKCKVSNKGLPSSIEKTISKAKGQPREPSVFIFPPSDEQLKSGTASVVCLVNNFYPRDIAVEWEVDNALQSGNSQESVTEQDSKDSTYSLSSTLTLSKADYEKHKVYSCSVMHEALHNHYTQKSFNRGECGGGGSGGGGSGGGGSGTGGSGG", "values": [{"measurement": "Cytotxicity IC50", "setting": "[1]", "value": 0.2, "unit": "nM"}]}, {"binder": "Her3N-CD3N-hFc1k (bispecific antibody, also called scFv3-43-CD3-Hinge-Fc1k) chain 1: QVQLQQSGPGLVKPSQTLSLTCAISGDSVSSNRAAWNWIRQSPSRGLEWLGRTYYRSKWYNDYAQSLKSRITINPDTPKNQFSLQLNSVTPEDTAVYYCARDGQLGLDALDIWGQGTMVTVSSGGGGSGGGGSGGGGSQAGLTQPPAVSVAPGQTASITCGRDNIGSRSVHWYQQKPGQAPVLVVYDDSDRPAGIPERFSGSNYENTATLTISRVEAGDEADYYCQVWGITSDHVVFGGGTKLTVLAAADKTHTCPPCPAPPVAGPSVFLFPPKPKDTLMISRTPEVTCVVVDVSHEDPEVKFNWYVDGVEVHNAKTKPREEQYNSTYRVVSVLTVLHQDWLNGKEYKCKVSNKGLPSSIEKTISKAKGQPREPSVFPLAPSSKSTSGGTAALGCLVKDYFPSDIAVEWESGALTSGVHTFPAVLQSSGLYSLSSVVTVPSSSLGTQTYSCSVMHEALHNHYTQKSVEPKSC chain 2: DIQMTQSPSSLSASVGDRVTITCRASQDIRNYLNWYQQKPGKAPKLLIYYTSRLHSGVPSRFSGSGSGTDFTFTISSLQPEDIATYYCQQGNTLPWTFGQGTKLEIKRGGGGSGGGGSGGGGSQVQLVQSGAEVKKPGSSVKVSCKASGGTFSGYTMNWVRQAPGQGLEWMGLINPYKGVSTYNGKFKDRVTITADKSTSTAYMELSSLRSEDTAVYYCARSGYYGDSDWYFDVWGQGTLVTVSSSGGGSGGGGSDKTHTCPPCPAPPVAGPSVFLFPPKPKDTLMISRTPEVTCVVVDVSHEDPEVKFNWYVDGVEVHNAKTKPREEQYNSTYRVVSVLTVLHQDWLNGKEYKCKVSNKGLPSSIEKTISKAKGQPREPSVFIFPPSDEQLKSGTASVVCLVNNFYPRDIAVEWEVDNALQSGNSQESVTEQDSKDSTYSLSSTLTLSKADYEKHKVYSCSVMHEALHNHYTQKSFNRGECGGGGSGGGGSGGGGSGTGGSGG", "values": [{"measurement": "EC50", "setting": "Her3-Fc fusion protein", "value": 1, "unit": "nM"}]}, {"binder": "Fab13.7 (Fab, V domains shown, Monovalent anti-human TNFR1 control Fab; Its variable domains are those used in Fv13.7-Fc1k and Fv13.7x-Fc1k) VH: HVQLVQSGAEVKKPGSSVKVSCKASGYTFTDFYINWVRQAPGQGLEWIGEIVPSQGEAKYNDKFKARVTITADKSTSTAYMELSSLRSEDTAVYYCARWDFLDYWGQGTTVTVSS VL: DVQMTQSPSSLSASVGDRVTITCRSSQSLLHSNGNTYLHWYQQKPGKAPKLLIYTVSNRFSGVPSRFSGSGSGTDFTLTISSLQPEDFATYYCSQSTHVPYTFGGGTKVEIK", "values": [{"measurement": "IL-8 Inhibition IC50", "setting": "[2]", "value": 26.3, "unit": "nM"}, {"measurement": "IC50, IL-6 release (HeLa cells)", "setting": "[3]", "value": 31.7, "unit": "nM"}, {"measurement": "EC50", "setting": "[4]", "value": 0.61, "unit": "nM"}, {"measurement": "EC50", "setting": "[5]", "value": 0.17, "unit": "nM"}, {"measurement": "EC50", "setting": "[6]", "value": 0.9, "unit": "nM"}, {"measurement": "IL-8 Inhibition IC50", "setting": "[7]", "value": 13, "unit": "nM"}, {"measurement": "IC50, Cell death induction [nM] (Kym-1 cells, 0.01 nM TNF)", "setting": "[8]", "value": 9.5, "unit": "nM"}, {"measurement": "IC50, IL-6 [nM] (HeLa cells, 0.1 nM TNF)", "setting": "[8]", "value": 37.1, "unit": "nM"}, {"measurement": "IC50, IL-8 [nM] (HT1080 cells, 0.1 nM TNF)", "setting": "[8]", "value": 12.7, "unit": "nM"}]}, {"binder": "Fv13.7-Fc1k (Fc fusion) chain 1: HVQLVQSGAEVKKPGSSVKVSCKASGYTFTDFYINWVRQAPGQGLEWIGEIVPSQGEAKYNDKFKARVTITADKSTSTAYMELSSLRSEDTAVYYCARWDFLDYWGQGTTVTVSSGTGGGSGPSVFLFPPKPKDTLMISRTPEVTCVVVDVSHEDPEVKFNWYVDGVEVHNAKTKPREEQYNSTYRVVSVLTVLHQDWLNGKEYKCKVSNKGLPSSIEKTISKAKGQPREPSVFPLAPSSKSTSGGTAALGCLVKDYFPSDIAVEWESGALTSGVHTFPAVLQSSGLYSLSSVVTVPSSSLGTQTYSCSVMHEALHNHYTQKSVEPKSC chain 2: DVQMTQSPSSLSASVGDRVTITCRSSQSLLHSNGNTYLHWYQQKPGKAPKLLIYTVSNRFSGVPSRFSGSGSGTDFTLTISSLQPEDFATYYCSQSTHVPYTFGGGTKVEIKGTGGGSGPSVFLFPPKPKDTLMISRTPEVTCVVVDVSHEDPEVKFNWYVDGVEVHNAKTKPREEQYNSTYRVVSVLTVLHQDWLNGKEYKCKVSNKGLPSSIEKTISKAKGQPREPSVFIFPPSDEQLKSGTASVVCLVNNFYPRDIAVEWEVDNALQSGNSQESVTEQDSKDSTYSLSSTLTLSKADYEKHKVYSCSVMHEALHNHYTQKSFNRGEC", "values": [{"measurement": "IL-8 Inhibition IC50", "setting": "[2]", "value": 39.7, "unit": "nM"}, {"measurement": "fold reduced binding affinity compared with Fab13.7", "setting": "[9]", "value": 1.9, "unit": "fold"}, {"measurement": "factor of increased inhibitory potential (IL-8 inhibition) compared to ATROSAB", "setting": "[3]", "value": 2.5, "unit": "fold"}, {"measurement": "fold reduced bioactivity (IL-8 inhibition) compared to Fab13.7", "setting": "[3]", "value": 1.5, "unit": "fold"}, {"measurement": "EC50", "setting": "[4]", "value": 1.18, "unit": "nM"}]}, {"binder": "Her3N-CD3C-hFc1k (bispecific antibody) chain 1: QVQLQQSGPGLVKPSQTLSLTCAISGDSVSSNRAAWNWIRQSPSRGLEWLGRTYYRSKWYNDYAQSLKSRITINPDTPKNQFSLQLNSVTPEDTAVYYCARDGQLGLDALDIWGQGTMVTVSSGGGGSGGGGSGGGGSQAGLTQPPAVSVAPGQTASITCGRDNIGSRSVHWYQQKPGQAPVLVVYDDSDRPAGIPERFSGSNYENTATLTISRVEAGDEADYYCQVWGITSDHVVFGGGTKLTVLAAADKTHTCPPCPAPPVAGPSVFLFPPKPKDTLMISRTPEVTCVVVDVSHEDPEVKFNWYVDGVEVHNAKTKPREEQYNSTYRVVSVLTVLHQDWLNGKEYKCKVSNKGLPSSIEKTISKAKGQPREPSVFPLAPSSKSTSGGTAALGCLVKDYFPSDIAVEWESGALTSGVHTFPAVLQSSGLYSLSSVVTVPSSSLGTQTYSCSVMHEALHNHYTQKSVEPKSC chain 2: DKTHTCPPCPAPPVAGPSVFLFPPKPKDTLMISRTPEVTCVVVDVSHEDPEVKFNWYVDGVEVHNAKTKPREEQYNSTYRVVSVLTVLHQDWLNGKEYKCKVSNKGLPSSIEKTISKAKGQPREPSVFIFPPSDEQLKSGTASVVCLVNNFYPRDIAVEWEVDNALQSGNSQESVTEQDSKDSTYSLSSTLTLSKADYEKHKVYSCSVMHEALHNHYTQKSFNRGECGGGGSGGGGSGGGGSGTDIQMTQSPSSLSASVGDRVTITCRASQDIRNYLNWYQQKPGKAPKLLIYYTSRLHSGVPSRFSGSGSGTDFTFTISSLQPEDIATYYCQQGNTLPWTFGQGTKLEIKRGGGGSGGGGSGGGGSQVQLVQSGAEVKKPGSSVKVSCKASGGTFSGYTMNWVRQAPGQGLEWMGLINPYKGVSTYNGKFKDRVTITADKSTSTAYMELSSLRSEDTAVYYCARSGYYGDSDWYFDVWGQGTLVTVSS", "values": [{"measurement": "EC50", "setting": "Her3-Fc fusion protein", "value": 0.1, "unit": "nM"}]}]}
